Measured values published in paper PMC8310366.

Tests used:
[1] = target: DENV NS1 T29A mutant (dengue virus serotype 2 (DENV-2, strain 16681)); assay: SDS-PAGE under non-heated, non-reduced conditions with immunoblotting
[2] = target: DENV NS1 S233A mutant (dengue virus serotype 2 (DENV-2, strain 16681)); assay: as above
[3] = target: DENV NS1 V6A mutant (dengue virus serotype 2 (DENV-2, strain 16681)); assay: as above
[4] = target: DENV NS1 T230A mutant (dengue virus serotype 2 (DENV-2, strain 16681)); assay: as above
[5] = target: Dengue virus serotype 2 nonstructural protein 1 (DENV NS1), wild type (dengue virus serotype 2 (DENV-2, strain 16681)); assay: as above
[6] = target: Dengue virus serotype 2 nonstructural protein 1 (DENV NS1), wild type (dengue virus serotype 2 (DENV-2, strain 16681)); assay: SDS-PAGE under non-heated, non-reduced conditions with Coomassie staining

DENV NS1 T29A mutant (natural protein) was tested, and the stoichiometry N [1] was 2.

Work on DENV NS1 S233A mutant (natural protein) yielded a stoichiometry N [2] of 2.

In the case of DENV NS1 V6A mutant (natural protein), the stoichiometry N [3] is reported as 2.

In the case of DENV NS1 T230A mutant (natural protein), the stoichiometry N [4] is reported as 2.

“Dengue virus serotype 2 nonstructural protein 1 (DENV NS1), wild type (natural protein)” was tested, and the stoichiometry N [5] was 2 and the stoichiometry N [6] was 2.
